In assay [1] the target is T1, rHuman Erythropoietin R/Fc Chimera, CF (R&D Systems Cat#963-ER) (human, UniProt P19235 25-250).
T1 construct: Bought protein; also called EPO R; EPO R/Fc
T1 sequence (looked up): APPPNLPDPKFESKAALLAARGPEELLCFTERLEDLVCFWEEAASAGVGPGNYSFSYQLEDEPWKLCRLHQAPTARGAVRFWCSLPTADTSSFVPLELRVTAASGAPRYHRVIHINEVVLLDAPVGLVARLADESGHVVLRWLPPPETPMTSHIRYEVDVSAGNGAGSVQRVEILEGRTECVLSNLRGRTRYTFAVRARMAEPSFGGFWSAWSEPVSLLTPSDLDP
The assay can be described thus: ECL multispot (MSD), antigen spotted; blank spot of this well 287.

The target of assay [2] is T2, rHuman IGF-1 sR, CF (R&D Systems Cat#391-GR) (human, UniProt P08069 31-932).
T2 construct: Bought soluble receptor; also called insulin-like growth factor-1 soluble receptor
The assay is described as above.

Assay [3] concerns the target T3, rHuman CD44/Fc Chimera, CF (R&D Systems Cat#3660-CD) (human, UniProt P16070 21-220).
T3 construct: Bought protein
Described as above.

The target of assay [4] is T4, rHuman EGF R/Fc Chimera, CF (R&D Systems Cat#344-ER) (human, UniProt P00533 25-645).
T4 construct: Bought protein; also called epidermal growth factor receptor
The description is as above.

For assay [5], the target named is T5, Recombinant Human DLL4 (R&D Systems Cat#1506-D4/CF) (human, UniProt Q9NR61 27-524).
T5 construct: Bought recombinant protein; also called delta-like protein 4; rHuman DLL4
The assay is described as above.

In assay [6] the target is T6, rHuman Notch-1/Fc Chimera, CF (R&D Systems Cat#3647-TK) (human, UniProt P46531 19-526).
T6 construct: Bought protein
The assay is described as above.

The target in assay [7] is T7, rHuman P-Cadherin/Fc Chimera, CF (R&D Systems Cat#861-PC) (human, UniProt P22223 108-654).
T7 construct: Bought protein
Described as above.

Assay [8] deals with T8, rHuman HGF R/c-MET/Fc Chimera, CF (R&D Systems Cat#358-MT/CF) (human, UniProt P08581 25-932).
T8 construct: Bought protein; also called HGF R/Fc; hepatocyte growth factor receptor
T8 sequence (P08581 25-932, change not shown): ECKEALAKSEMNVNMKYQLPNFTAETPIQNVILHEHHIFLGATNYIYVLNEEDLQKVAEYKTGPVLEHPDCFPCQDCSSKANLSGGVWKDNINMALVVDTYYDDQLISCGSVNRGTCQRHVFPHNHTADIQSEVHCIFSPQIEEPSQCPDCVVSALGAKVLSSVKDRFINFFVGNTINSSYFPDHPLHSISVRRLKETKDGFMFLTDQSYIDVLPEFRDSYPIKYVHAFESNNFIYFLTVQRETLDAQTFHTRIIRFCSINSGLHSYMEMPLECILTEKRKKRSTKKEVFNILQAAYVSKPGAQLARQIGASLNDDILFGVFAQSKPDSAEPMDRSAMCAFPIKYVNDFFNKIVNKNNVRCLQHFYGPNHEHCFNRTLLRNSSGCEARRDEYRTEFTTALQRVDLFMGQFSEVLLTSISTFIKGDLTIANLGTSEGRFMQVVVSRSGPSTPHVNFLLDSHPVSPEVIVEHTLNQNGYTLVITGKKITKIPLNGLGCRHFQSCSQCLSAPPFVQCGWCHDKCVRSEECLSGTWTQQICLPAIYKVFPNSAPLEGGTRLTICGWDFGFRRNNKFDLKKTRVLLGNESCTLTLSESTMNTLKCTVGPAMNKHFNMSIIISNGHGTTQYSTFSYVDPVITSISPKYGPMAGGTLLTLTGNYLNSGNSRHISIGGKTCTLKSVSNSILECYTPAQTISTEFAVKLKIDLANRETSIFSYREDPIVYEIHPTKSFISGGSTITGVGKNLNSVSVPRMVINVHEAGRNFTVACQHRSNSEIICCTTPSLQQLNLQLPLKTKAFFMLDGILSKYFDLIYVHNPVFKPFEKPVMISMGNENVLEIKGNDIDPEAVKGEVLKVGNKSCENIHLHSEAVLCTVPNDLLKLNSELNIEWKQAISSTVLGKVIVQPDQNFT
Described as above.

In assay [9] the target is T9, rHuman ErbB2/Fc Chimera, CF (R&D Systems Cat#1129-ER) (human, UniProt P04626 23-652).
T9 construct: Bought protein; also called human epidermal growth factor 2 receptor
The description is as above.

Assay [10] addresses T1, rHuman Erythropoietin R/Fc Chimera, CF …. Description: ECL multispot (MSD), antigen spotted; blank spot of this well 229.
Assay [11] has as its target T2, rHuman IGF-1 sR, CF (R&D Systems …). Described as above.
The target of assay [12] is T3, rHuman CD44/Fc Chimera, CF (R&D Systems …). The description is as above.
In assay [13] the target is T4, rHuman EGF R/Fc Chimera, CF (R&D …). Described as above.
Assay [14] deals with T5, Recombinant Human DLL4 (R&D Systems …). Described as above.
In assay [15] the target is T6, rHuman Notch-1/Fc Chimera, CF (R&D …). Described as above.
The target of assay [16] is T7, rHuman P-Cadherin/Fc Chimera, CF (R&D …). Described as above.
Assay [17] has as its target T8, rHuman HGF R/c-MET/Fc Chimera, CF (R&D …). The assay is described as above.
Assay [18] has as its target T9, rHuman ErbB2/Fc Chimera, CF (R&D …). The description is as above.
The target of assay [19] is T1, rHuman Erythropoietin R/Fc Chimera, CF …. Description: ECL multispot (MSD), antigen spotted; blank spot of this well 261.
Assay [20] concerns the target T2, rHuman IGF-1 sR, CF (R&D Systems …). The description is as above.
For assay [21], the target named is T3, rHuman CD44/Fc Chimera, CF (R&D Systems …). Described as above.
Assay [22] addresses T4, rHuman EGF R/Fc Chimera, CF (R&D …). Described as above.
Assay [23] concerns the target T5, Recombinant Human DLL4 (R&D Systems …). The description is as above.
The target of assay [24] is T6, rHuman Notch-1/Fc Chimera, CF (R&D …). The description is as above.
Assay [25] addresses T7, rHuman P-Cadherin/Fc Chimera, CF (R&D …). The description is as above.
Assay [26] addresses T8, rHuman HGF R/c-MET/Fc Chimera, CF (R&D …). Described as above.
Assay [27] has as its target T9, rHuman ErbB2/Fc Chimera, CF (R&D …). The description is as above.

B1: Fab VH1-46_IGHD6-6*01_IGHJ1*01 S102A/S103P/S104F (APF) & L6_IGKJ1*01 (Fab, V domains shown)
VH: QVQLVQSGAEVKKPGASVKVSCKASGYTFTSYYMHWVRQAPGQGLEWMGIINPSGGSTSYAQKFQGRVTMTRDTSTSTVYMELSSLRSEDTAVYYCAREEYAPFSAEYFQHWGQGTLVTVSS
VL: not shown
notes: Fab made in E. coli: VH cloned into Plasmid A (CH1, His6 and Flag tags), VL into Plasmid C (kappa CL); Template of the light chain NNK mutants; also called APF / parent; H:APF & L:wt
As to B1, the ECL signal in assay [1] stood at 319; in assay [2] it was 162; in assay [3], 205; in assay [4], 226; in [5] it was 2440; in [6], 358. Moreover, the ECL signal came out at 250 in assay [7]; 344 in assay [8]; 317 in [9]; 252 in [10]; 223 in assay [11]; 223 in [12]. The ECL signal in assay [13] was 363; in assay [14], 2580; in [15], 398; in assay [16], 189; in assay [17] it was 307; in [18], 331.

B2: Fab VH1-46_IGHD6-6*01_IGHJ1*01 S102A/S103P/S104F (APF) & L6_IGKJ1*01 R91Q (Fab, V domains shown)
VH: B1 VH
VL: EIVLTQSPATLSLSPGERATLSCRASQSVSSYLAWYQQKPGQAPRLLIYDASNRATGIPARFSGSGSGTDFTLTISSLEPEDFAVYYCQQQSNWPPWTFGQGTKVEIKR
notes: Fab made in E. coli: VH cloned into Plasmid A (CH1, His6 and Flag tags), VL into Plasmid C (kappa CL); also called APF / R91Q
For B2, the ECL signal in assay [19] is 263; in assay [20], 210; in assay [21] it was 268; in [22], 290; in assay [23], 817; in assay [24] it was 229. The values for the ECL signal in assay [25], in assay [26] and in assay [27] were 314, 325 and 234, respectively.

The values are drawn from patent US20120316071A1 (published 2012).
